Laboratory results published in article PMC9616950, “A toxin-deformation dependent inhibition mechanism in the T7SS toxin-antitoxin system of Gram-positive bacteria” (Nature Communications, 2022).

B1: EsaDc H528A (EsaD residues 450-614, crystallised with EsaG) (domain or fragment)
chain: SPNYTKVEFGEHYARLRPKKLKANIEYTTPTGHIYRTDHKGRIKEVYVDNLSLKDGDRNSHAQRTVGGEDRLPDDDGGALIARMFGGSKDIDNLVAQSKFINRPFKEKGHWYNLEKEWQEFLNSGKEVKNIKMEVKYSGNSQRPTIFKVEYEINGERNIRRILNK
notes: source: E. coli BL21(DE3), purified (nickel column, ion exchange, Superdex 200); not shown: His6-SUMO, N-terminal, cleaved
B2: EsaG (natural protein)
chain: MTFEEKLSKIYNEIANEISSMIPVEWEKVYTMAYIDDGGGEVFFNYTKPGSDDLNYYTNIPKEYNISVQVFDDLWMDLYDLFEELRDLFKEEDLEPWTSCEFDFTREGELKVSFDYIDWINSEFGQIGRQNYYKYRKFGILPETEYEINKVKEIEQYIKELEE
notes: also called antitoxin EsaG; full-length EsaG; source: E. coli BL21(DE3), purified (nickel column, ion exchange, Superdex 200); not shown: His6-SUMO, N-terminal, cleaved
B3: His-EsaDc-NFL (His-SUMO-tagged EsaD residues 450-503) (domain or fragment)
chain: SPNYTKVEFGEHYARLRPKKLKANIEYTTPTGHIYRTDHKGRIKEVYVDNLSLK
notes: also called His-tagged NFL; source: E. coli, purified; not shown: His-SUMO, N-terminal, kept
B4: NFL (EsaD residues 450-503) (domain or fragment)
chain: B3 chain
notes: 15N-labelled in one of the HSQC samples; The methods call the fragment NTL; also called EsaDc-NFL; NTL; source: E. coli BL21(DE3), purified (nickel column, ion exchange, Superdex 200); not shown: His6-SUMO, N-terminal, cleaved

Key:
[1] = target: Avi-tagged EsaG, biotinylated (S. aureus) (UniProt Q2G178); assay: BLI; biotinylated Avi-tagged EsaG immobilised on streptavidin biosensors, EsaDc in solution at different concentrations; 300 mM NaCl, 30 mM NaH2PO4, 27 mM KCl, pH 7.2
[2] = target: the molecule itself; assay: crystal structure; EsaDc-EsaG complex, 2.60 Å; hanging drop, 0.1 M Tris pH 8.5, 12% PEG6000, 0.15 M NaCl, 10% ethylene glycol, 0.5% Tacsimate pH 7.0, 1.0% PEG5000MME
[3] = target: B1; assay: as above; conditions: both partners purified
EsaG [4] = target: B2; assay: pull-down; His-SUMO-tagged protein on Ni-NTA beads with untagged protein (0.16 mM : 0.2 mM); 25 mM Tris-HCl pH 8.0, 1 M NaCl, 24 °C, 30 min; Coomassie-stained SDS-PAGE; conditions: both partners purified
EsaG [5] = target: B2; assay: SEC; gel filtration of purified proteins and their mixtures; column and buffer not told for these runs; conditions: both partners purified

Molecule: EsaDc (EsaD residues 450-614, as used in the solution assays) (from UniProt Q2G179 450-614) (domain or fragment)
- Kd [1]: 460 nM

Molecule: EsaDc Y484A (from UniProt Q2G179 450-614) (domain or fragment)
- Kd [1]: 1670 nM

Molecule: EsaDc N562F (from UniProt Q2G179 450-614) (domain or fragment)
- Kd [1]: 860 nM

Molecule: B1
- binding result [2]: binds

Molecule: B2
- binding result [3]: binds

Molecule: B3
- binding result (EsaG [4]): binds

Molecule: B4
- binding result (EsaG [5]): binds
